Results on one molecule are retold here after patent publication US20170260251A1 (ANSUN BIOPHARMA, published 2017).

In assay [1] the target is T1, mouse coagulation factor IXa (mouse, UniProt P16294 47-192; P16294 237-471).
T1 construct: also called IXa (mice)
Nature of the assay: protease inhibition constant Ki, mouse enzyme.

In a further assay the target is T2, mouse kallikrein (mouse, UniProt P26262 20-638, limits assumed).
T2 construct: also called Kallikrein (mice)
As to the kind of experiment: protease inhibition constant Ki, mouse enzyme.

The target of assay [2] is T3, mouse coagulation factor Xa (mouse, UniProt O88947 41-180; O88947 232-481, limits assumed).
T3 construct: also called Xa (mice)
Nature of the assay: protease inhibition constant Ki, mouse enzyme.

Another assay has as its target T4, mouse thrombin (mouse, UniProt P19221 325-618).
T4 construct: also called Thrombin (mice)
As to the kind of experiment: protease inhibition constant Ki, mouse enzyme.

Another assay concerns the target T5, mouse plasmin (mouse, UniProt P20918 98-812).
T5 construct: also called Plasmin (mice)
As to the kind of experiment: protease inhibition constant Ki, mouse enzyme.

For assay [3], the target named is T6, human coagulation factor VIIa (human, UniProt P08709 61-466).
T6 sequence (looked up): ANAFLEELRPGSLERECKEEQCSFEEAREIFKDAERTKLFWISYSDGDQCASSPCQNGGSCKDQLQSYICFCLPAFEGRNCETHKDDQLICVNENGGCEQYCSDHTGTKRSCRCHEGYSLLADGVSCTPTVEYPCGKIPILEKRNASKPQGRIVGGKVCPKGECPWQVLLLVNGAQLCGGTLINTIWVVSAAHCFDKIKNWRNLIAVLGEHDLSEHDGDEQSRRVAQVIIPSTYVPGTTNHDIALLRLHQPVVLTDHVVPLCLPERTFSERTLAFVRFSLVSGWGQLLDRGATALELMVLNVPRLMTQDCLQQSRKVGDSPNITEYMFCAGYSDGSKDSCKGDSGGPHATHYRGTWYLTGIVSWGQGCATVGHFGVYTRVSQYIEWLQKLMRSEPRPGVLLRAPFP
Nature of the assay: protease inhibition constant Ki, human enzyme.

A further assay addresses human kallikrein (human, UniProt P03952 20-638, limits assumed). As to the kind of experiment: protease inhibition constant Ki, human enzyme.
The target in a further assay is human thrombin (human, UniProt P00734 328-622). Nature of the assay: protease inhibition constant Ki, human enzyme.
Assay [4] deals with human coagulation factor Xa (human, UniProt P00742 41-179; P00742 235-488, limits assumed). Nature of the assay: protease inhibition constant Ki, human enzyme.
A further assay addresses human plasmin (human, UniProt P00747 97-810). Nature of the assay: protease inhibition constant Ki, human enzyme.

T5 sequence (P20918 98-812 limits assumed): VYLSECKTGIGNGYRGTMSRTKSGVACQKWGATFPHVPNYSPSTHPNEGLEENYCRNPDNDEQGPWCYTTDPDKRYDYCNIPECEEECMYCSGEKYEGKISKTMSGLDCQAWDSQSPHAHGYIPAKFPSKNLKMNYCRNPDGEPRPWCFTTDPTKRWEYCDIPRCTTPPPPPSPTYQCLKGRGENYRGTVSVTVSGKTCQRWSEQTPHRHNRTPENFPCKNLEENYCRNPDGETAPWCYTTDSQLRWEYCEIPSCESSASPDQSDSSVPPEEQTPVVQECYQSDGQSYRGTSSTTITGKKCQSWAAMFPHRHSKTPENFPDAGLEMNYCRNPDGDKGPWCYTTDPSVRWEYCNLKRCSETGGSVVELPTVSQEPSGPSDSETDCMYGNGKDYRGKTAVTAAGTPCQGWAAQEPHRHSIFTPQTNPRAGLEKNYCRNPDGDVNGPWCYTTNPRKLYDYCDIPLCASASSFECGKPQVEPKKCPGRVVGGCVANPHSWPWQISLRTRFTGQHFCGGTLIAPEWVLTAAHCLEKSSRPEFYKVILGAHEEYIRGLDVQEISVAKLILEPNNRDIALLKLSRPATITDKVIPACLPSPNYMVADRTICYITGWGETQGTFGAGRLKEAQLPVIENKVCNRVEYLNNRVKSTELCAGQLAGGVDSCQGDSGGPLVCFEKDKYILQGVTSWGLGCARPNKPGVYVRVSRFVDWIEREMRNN
T2 sequence (P26262 20-638 limits assumed): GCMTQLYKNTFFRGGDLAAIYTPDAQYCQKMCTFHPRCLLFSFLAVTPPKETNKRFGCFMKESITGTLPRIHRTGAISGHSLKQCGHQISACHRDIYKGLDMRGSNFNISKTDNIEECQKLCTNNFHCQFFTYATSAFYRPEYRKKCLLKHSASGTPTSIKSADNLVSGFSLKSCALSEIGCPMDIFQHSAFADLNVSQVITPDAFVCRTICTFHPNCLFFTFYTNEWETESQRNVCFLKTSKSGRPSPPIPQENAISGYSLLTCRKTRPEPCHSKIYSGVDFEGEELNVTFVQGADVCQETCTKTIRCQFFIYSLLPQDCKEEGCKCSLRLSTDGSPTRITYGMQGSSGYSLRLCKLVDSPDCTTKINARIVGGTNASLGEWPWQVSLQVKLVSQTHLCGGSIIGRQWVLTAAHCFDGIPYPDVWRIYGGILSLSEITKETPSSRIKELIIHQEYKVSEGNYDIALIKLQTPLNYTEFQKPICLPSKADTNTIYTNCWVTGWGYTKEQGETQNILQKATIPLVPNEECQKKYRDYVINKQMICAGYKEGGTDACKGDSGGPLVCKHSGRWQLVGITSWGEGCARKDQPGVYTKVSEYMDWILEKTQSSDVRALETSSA
human plasmin, sequence (P00747 97-810 limits assumed): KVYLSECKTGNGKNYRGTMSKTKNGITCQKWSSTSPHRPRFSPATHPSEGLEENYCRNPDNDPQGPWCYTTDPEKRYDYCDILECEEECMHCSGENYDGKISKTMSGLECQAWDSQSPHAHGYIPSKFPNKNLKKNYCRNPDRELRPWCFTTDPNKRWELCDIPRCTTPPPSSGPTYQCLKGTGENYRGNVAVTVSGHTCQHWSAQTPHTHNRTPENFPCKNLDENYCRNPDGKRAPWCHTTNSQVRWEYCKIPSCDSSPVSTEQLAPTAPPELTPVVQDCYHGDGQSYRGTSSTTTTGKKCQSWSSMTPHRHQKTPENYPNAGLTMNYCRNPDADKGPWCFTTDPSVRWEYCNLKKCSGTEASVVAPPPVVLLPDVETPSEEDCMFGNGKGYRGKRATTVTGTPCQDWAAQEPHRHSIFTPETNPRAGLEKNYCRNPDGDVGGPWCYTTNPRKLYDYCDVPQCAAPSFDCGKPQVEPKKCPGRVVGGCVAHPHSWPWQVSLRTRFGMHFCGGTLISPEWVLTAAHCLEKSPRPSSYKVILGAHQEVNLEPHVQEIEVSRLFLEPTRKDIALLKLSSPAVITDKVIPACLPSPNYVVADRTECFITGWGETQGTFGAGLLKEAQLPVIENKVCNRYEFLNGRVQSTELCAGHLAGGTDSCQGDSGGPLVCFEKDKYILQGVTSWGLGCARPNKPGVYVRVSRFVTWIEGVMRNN
human coagulation factor Xa, sequence (P00742 41-179 limits assumed, chain 1 of 2): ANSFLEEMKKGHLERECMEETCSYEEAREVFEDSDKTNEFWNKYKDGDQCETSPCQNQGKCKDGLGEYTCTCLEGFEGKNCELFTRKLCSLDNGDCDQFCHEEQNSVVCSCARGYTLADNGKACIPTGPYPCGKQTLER
human coagulation factor Xa, sequence (P00742 235-488 limits assumed, chain 2 of 2): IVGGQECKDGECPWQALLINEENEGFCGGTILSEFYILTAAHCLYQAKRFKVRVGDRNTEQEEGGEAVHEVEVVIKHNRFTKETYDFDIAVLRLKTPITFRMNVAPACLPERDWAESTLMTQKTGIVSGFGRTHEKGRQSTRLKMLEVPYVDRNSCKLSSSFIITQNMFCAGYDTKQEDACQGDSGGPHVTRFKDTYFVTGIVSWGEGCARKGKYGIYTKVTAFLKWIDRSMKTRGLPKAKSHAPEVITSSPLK
T3 sequence (O88947 41-180 limits assumed, chain 1 of 2): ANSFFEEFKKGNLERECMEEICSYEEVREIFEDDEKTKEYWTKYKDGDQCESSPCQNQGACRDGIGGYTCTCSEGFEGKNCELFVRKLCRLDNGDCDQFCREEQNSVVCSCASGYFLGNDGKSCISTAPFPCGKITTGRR
T3 sequence (O88947 232-481 limits assumed, chain 2 of 2): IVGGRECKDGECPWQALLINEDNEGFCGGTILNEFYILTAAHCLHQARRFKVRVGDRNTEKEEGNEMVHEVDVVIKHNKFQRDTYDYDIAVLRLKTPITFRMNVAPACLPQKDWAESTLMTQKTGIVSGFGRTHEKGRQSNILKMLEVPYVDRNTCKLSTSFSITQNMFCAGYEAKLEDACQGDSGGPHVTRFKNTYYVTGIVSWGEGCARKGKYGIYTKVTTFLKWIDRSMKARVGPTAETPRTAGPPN
human kallikrein, sequence (P03952 20-638 limits assumed): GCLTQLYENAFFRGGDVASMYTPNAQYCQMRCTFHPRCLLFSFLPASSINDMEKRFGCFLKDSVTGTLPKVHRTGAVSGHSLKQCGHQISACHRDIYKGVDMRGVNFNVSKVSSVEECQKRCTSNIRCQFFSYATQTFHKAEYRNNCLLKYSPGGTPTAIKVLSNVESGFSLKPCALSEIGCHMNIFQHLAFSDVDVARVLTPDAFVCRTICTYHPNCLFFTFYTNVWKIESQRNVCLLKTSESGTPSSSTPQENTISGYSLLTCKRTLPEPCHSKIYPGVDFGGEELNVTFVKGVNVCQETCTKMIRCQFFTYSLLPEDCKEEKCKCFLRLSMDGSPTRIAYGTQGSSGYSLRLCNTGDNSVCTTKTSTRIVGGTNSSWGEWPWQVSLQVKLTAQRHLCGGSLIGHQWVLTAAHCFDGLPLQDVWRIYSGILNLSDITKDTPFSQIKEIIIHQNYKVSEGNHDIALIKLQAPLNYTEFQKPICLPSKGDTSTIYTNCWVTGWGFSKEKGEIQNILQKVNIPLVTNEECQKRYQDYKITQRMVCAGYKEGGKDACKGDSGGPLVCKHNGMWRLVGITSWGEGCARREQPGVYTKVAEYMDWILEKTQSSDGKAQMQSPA
T1 sequence (P16294 47-192 limits assumed, chain 1 of 2): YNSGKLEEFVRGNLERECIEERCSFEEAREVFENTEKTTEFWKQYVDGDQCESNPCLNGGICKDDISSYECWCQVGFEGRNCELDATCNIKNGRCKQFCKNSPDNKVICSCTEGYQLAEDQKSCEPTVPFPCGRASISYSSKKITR
T1 sequence (P16294 237-471 limits assumed, chain 2 of 2): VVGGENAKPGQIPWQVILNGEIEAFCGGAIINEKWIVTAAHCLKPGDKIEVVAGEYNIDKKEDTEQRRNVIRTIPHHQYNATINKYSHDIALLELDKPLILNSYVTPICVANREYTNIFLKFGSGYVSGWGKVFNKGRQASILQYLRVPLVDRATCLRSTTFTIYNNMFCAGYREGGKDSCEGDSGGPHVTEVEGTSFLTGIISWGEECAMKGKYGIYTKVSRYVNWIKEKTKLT

B1: Ecotin variant NB141 (M84R/S82H) (other)
chain: AESVQPLEKIAPYPQAEKGMKRQVIQLTPQEDESTLKVELLIGQTLEVDCNLHRLGGKLENKTLEGWGYDYYVFDKVSSPVHTRMACPDGKKEKKFVTAYLGDAGMLRYNSKLPIVVYTPDNVDVKYRVWKAEEKIDNAVVR
As usually defined, the Ki is the equilibrium dissociation constant of an inhibitor or competing ligand from its target. A higher Ki goes with a looser hold on the target. In the case of B1, the inhibitory constant (Ki) was found to be 0.6 nM in assay [1]; 0.2 nM with mouse kallikrein; 0.2 nM in assay [2]; 11.6 nM with mouse thrombin; 1.2 nM with mouse plasmin; 0.2 nM in assay [3]. Moreover, the inhibition constant Ki with human kallikrein was determined as 0.07 nM; in the assay with human thrombin it was 1.6 nM; in assay [4] it was 0.2 nM; with human plasmin it was 18.7 nM.
